Source: patent US20130108602A1, “METHODS AND USES OF NUR77 AND NUR77 AGONISTS TO MODULATE MACROPHAGES AND MONOCYTES, AND TREAT INFLAMMATION, INFLAMMATORY DISEASE AND CARDIOVASCULAR DISEASE” (LA JOLLA INSTITUTE FOR ALLERGY AND IMMUNOLOGY, priority 2010, published 2013)

Assays:
[1] = test system: Nur77 mRNA; assay: Nur77 (NR4A1) mRNA by real-time RT-PCR in human monocyte-derived macrophages; type: cell-based
[2] = test system: Nur77 protein; assay: Nur77 protein staining in primary human monocyte-derived macrophages; type: cell-based; details: at 24 hours, Gal-3BP 10 μg/ml

B1: Gal-3BP: recombinant human galectin-3 binding protein (R&D) (protein, UniProt Q08380 19-585, looked up)
Galectin-3-binding protein: VNDGDMRLADGGATNQGRVEIFYRGQWGTVCDNLWDLTDASVVCRALGFENATQALGRAAFGQGSGPIMLDEVQCTGTEASLADCKSLGWLKSNCRHERDAGVVCTNETRSTHTLDLSRELSEALGQIFDSQRGCDLSISVNVQGEDALGFCGHTVILTANLEAQALWKEPGSNVTMSVDAECVPMVRDLLRYFYSRRIDITLSSVKCFHKLASAYGARQLQGYCASLFAILLPQDPSFQMPLDLYAYAVATGDALLEKLCLQFLAWNFEALTQAEAWPSVPTDLLQLLLPRSDLAVPSELALLKAVDTWSWGERASHEEVEGLVEKIRFPMMLPEELFELQFNLSLYWSHEALFQKKTLQALEFHTVPFQLLARYKGLNLTEDTYKPRIYTSPTWSAFVTDSSWSARKSQLVYQSRRGPLVKYSSDYFQAPSDYRYYPYQSFQTPQHPSFLFQDKRVSWSLVYLPTIQSCWNYGFSCSSDELPVLGLTKSGGSDRTIAYENKALMLCEGLFVADVTDFEGWKAAIPSALDTNSSKSTSSFPCPAGHFNGFRTVIRPFYLTNSSGVD
- time of peak Nur77 mRNA expression after addition ([1]; M-CSF-derived human macrophages (M0), Gal-3BP 10 μg/ml): 48 h
- NUR77 mRNA increase ([1]; M-CSF-derived human macrophages (M0), Gal-3BP 10 μg/ml, 0-72 hours, two independent studies): 3-4 fold
- NR4A1 expression induction ([1]; human primary macrophages, 6 hours after Gal-3BP, normalized to t=0, n=3): more than 6 fold
- Nur77 protein compared to control [2]: massively increased
